Among the data in paper PMC4538827 are Kd and stoichiometry N values, retold here.

Data set [1] deals with T1, σNS (sigma NS) (Avian reovirus strain 1733) (UniProt W8NR44).
T1 sequence: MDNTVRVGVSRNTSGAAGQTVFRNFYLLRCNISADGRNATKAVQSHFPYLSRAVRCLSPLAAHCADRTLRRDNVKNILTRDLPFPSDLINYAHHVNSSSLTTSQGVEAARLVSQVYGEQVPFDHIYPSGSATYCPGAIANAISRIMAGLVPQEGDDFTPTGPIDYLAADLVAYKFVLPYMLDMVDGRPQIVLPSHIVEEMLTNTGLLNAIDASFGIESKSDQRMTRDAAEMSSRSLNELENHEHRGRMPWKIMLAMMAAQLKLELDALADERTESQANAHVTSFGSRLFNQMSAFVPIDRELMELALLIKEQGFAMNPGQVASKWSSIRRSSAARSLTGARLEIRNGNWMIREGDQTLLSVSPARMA
As to the kind of experiment: fluorescence anisotropy. The note with it: FA: 10 mM HEPES-NaOH pH 7.5, 150 mM NaCl, 21 C, 1 nM RNA, 30 min; smFRET in same buffer at 37 C; SEC 25 mM HEPES-Na pH 7.8, 150 mM NaCl, 4 C. A general note: Polarisation of emitted light reports the rotation of a fluorescent probe.

Data set [2] deals with T1, σNS (sigma NS) (Avian reovirus strain 1733). Description: ensemble FRET. The note with it: FA: 10 mM HEPES-NaOH pH 7.5, 150 mM NaCl, 21 C, 1 nM RNA, 30 min; smFRET in same buffer at 37 C; SEC 25 mM HEPES-Na pH 7.8, 150 mM NaCl, 4 C.
For data set [3] the target is unchanged. Description: fluorescence anisotropy. Conditions: FA: 10 mM HEPES-NaOH pH 7.5, 150 mM NaCl, 21 C, 1 nM RNA, 30 min; smFRET in same buffer at 37 C; SEC 25 mM HEPES-Na pH 7.8, 150 mM NaCl, 4 C. This is another data set of the same source.
Data set [4] has the same target. Description: FCS. Conditions: FA: 10 mM HEPES-NaOH pH 7.5, 150 mM NaCl, 21 C, 1 nM RNA, 30 min; smFRET in same buffer at 37 C; SEC 25 mM HEPES-Na pH 7.8, 150 mM NaCl, 4 C.
Data set [5] addresses avian reovirus σNS (ARV strain 1733), full-length recombinant (avian reovirus strain 1733). Description: SAXS.
Data set [6] shares this target. As to the kind of experiment: AUC.
Data set [7] shares this target. Description: native MS.
Data set [8] shares this target. As to the kind of experiment: native MS. This is another data set of the same source.

Values joined by “and” are separate entries in the source; they are usually repeats but may differ in a detail not shown here. Equal entries are not always repeated.

As usually defined, the Kd is the concentration at which binding is half-saturated. For 20-nt ssDNA, in data set [1], the Kd is 24.5 nM.

For “ATAGGTATAACAGTTAACGTATGCTATACGCTAATAGCATACGTTT [46-nt stem-loop]”, the Kd in data set [2] turned out to be 1100 nM; in data set [3], 333 nM.

For the substance GACCUAUUCUCUUUUUCUCU [20-nt RNA], the values for the Kd in data set [4], in data set [3] and in data set [1] were 39.5 nM, 26.5 nM and 35 nM, respectively.

Consider “GGGAGACCUAUUCUCUUUUUCUCUCCUUUUCCCCCCUGUUGCUUUAUUUUCCUUCUUUGCCUUUUUCUCUCUUUUUUUUUCUUUUUUCCCUUUCUGCUUUCCUCCCCUAUUCUCCCCUCUU [120-nt RNA]”, for which the Kd in data set [3] was found to be 25 nM. In other words, the double-digit nanomolar range.

The substance MS2 RNA (3569 nt) yielded a Kd in data set [4] of 250 nM.

As usually defined, the stoichiometry N is a count of units in the complex or per binding partner. Take “avian reovirus σNS (ARV strain 1733), full-length recombinant (natural protein)”: the stoichiometry N in data set [5] was 6; in data set [6], 6; in data set [7], 8; in data set [8], 6 and 2 and 4.
